Here are results for 5 proteins from FireProtDB.

What is called Tm is the temperature at the midpoint of the melting transition.

The conditions of this series: whole UniProt chain shown; for Tm: Thermal.
Setting [1] is: Vibrio harveyi, pH 7, 18 °C, Urea, CD, phosphate 50 mM, reversible: yes.
Setting [2] is: Thermus thermophilus, pH 7, 25 °C, GdnHCl, CD, Potassium phosphate 20 mM, potassium chloride 50 mM.
Where [3] appears, read: Thermus thermophilus (strain ATCC 27634 / DSM 579 / HB8), pH 7.5, 25 °C, GdnHCl, Fluorescence, tris-HCl 20 mM, reversible: yes.

“And” between values parts separate entries of the source, which are not always exact repeats. Equal values may be shown once.

B1: Triosephosphate isomerase, glycosomal wild type, P04789 (protein)
chain: MSKPQPIAAANWKCNGSQQSLSELIDLFNSTSINHDVQCVVASTFVHLAMTKERLSHPKFVIAAQNAIAKSGAFTGEVSLPILKDFGVNWIVLGHSERRAYYGETNEIVADKVAAAVASGFMVIACIGETLQERESGRTAVVVLTQIAAIAKKLKKADWAKVVIAYEPVWAIGTGKVATPQQAQEAHALIRSWVSSKIGADVAGELRILYGGSVNGKNARTLYQQRDVNGFLVGGASLKPEFVDIIKATQ
For B1, the Tm is, setting by setting: (Trypanosoma brucei brucei, pH 7, CD, 3-(N-morpholino)propanesulfonic acid/dithiothreitol 20 mM/0.02 mM, EDTA 0.02 mM) 52.2 °C; (Trypanosoma brucei brucei, pH 7.4, CD, MOPS 20 mM, EDTA 1 mM, reversible: no) 51.4 °C; (Trypanosoma brucei brucei, pH 7.5, CD, TEA 0.9 mM, NaCl 1.2 mM) 44 °C and 48 °C.

B2: Alkanal monooxygenase alpha chain wild type, P07740 (protein)
chain: MKFGNFLLTYQPPELSQTEVMKRLVNLGKASEGCGFDTVWLLEHHFTEFGLLGNPYVAAAHLLGATETLNVGTAAIVLPTAHPVRQAEDVNLLDQMSKGRFRFGICRGLYDKDFRVFGTDMDNSRALMDCWYDLMKEGFNEGYIAADNEHIKFPKIQLNPSAYTQGGAPVYVVAESASTTEWAAERGLPMILSWIINTHEKKAQLDLYNEVATEHGYDVTKIDHCLSYITSVDHDSNRAKDICRNFLGHWYDSYVNATKIFDDSDQTKGYDFNKGQWRDFVLKGHKDTNRRIDYSYEINPVGTPEECIAIIQQDIDATGIDNICCGFEANGSEEEIIASMKLFQSDVMPYLKEKQ
In the case of B2, the denaturant m value was 2.26 kcal/mol/M and 2.18 kcal/mol/M under setting [1]; 2.38 kcal/mol/M and 3.99 kcal/mol/M (Vibrio harveyi, pH 7, 18 °C, Urea, Fluorescence, NaH2PO4-K2HPO4 50 mM, transition: 3, reversible: yes); 2.47 kcal/mol/M (Vibrio harveyi, pH 7, 18 °C, Urea, Fluorescence, phosphate 50 mM, reversible: yes). The unfolding free energy under setting [1] is 2.36 kcal/mol and 6.04 kcal/mol.

B3: Small ribosomal subunit protein bS6 wild type, P23370 (protein)
chain: MRRYEVNIVLNPNLDQSQLALEKEIIQRALENYGARVEKVEELGLRRLAYPIAKDPQGYFLWYQVEMPEDRVNDLARELRIRDNVRRVMVVKSQEPFLANA
With B3, under setting [2], the denaturant m value worked out at 2.5 kcal/mol/M and the unfolding free energy came to 8.5 kcal/mol.

B4: Phosphoglycerate kinase wild type, P09403 (protein)
chain: MRTLLDLDPKGKRVLVRVDYNVPVQDGKVQDETRILESLPTLRHLLAGGASLVLLSHLGRPKGPDPKYSLAPVGEALRAHLPEARFAPFPPGSEEARREAEALRPGEVLLLENVRFEPGEEKNDPELSARYARLGEAFVLDAFGSAHRAHASVVGVARLLPAYAGFLMEKEVRALSRLLKDPERPYAVVLGGAKVSDKIGVIESLLPRIDRLLIGGAMAFTFLKALGGEVGRSLVEEDRLDLAKDLLGRAEALGVRVYLPEDVVAAERIEAGVETRVFPARAIPVPYMGLDIGPKTREAFARALEGARTVFWNGPMGVFEVPPFDEGTLAVGQAIAALEGAFTVVGGGDSVAAVNRLGLKERFGHVSTGGGASLEFLEKGTLPGLEVLEG
Consider B4, for which, under setting [3], the denaturant m value amounted to 2.7 kcal/mol/M, the “denaturant midpoint (higher = more stable)” value is 2.34 M and the unfolding free energy amounted to 6.32 kcal/mol.

B5: Protein GrpE wild type, Q56236 (protein)
chain: MEERNHENTLEKDLEAVGQEAQALEERLKAAEEELKGLKDKYLRLLADFDNYRKRMEEELKAREREGVLKALRALLPVLDDLDRALEFAEASPESIRQGVRAIRDGFFRILAGLGVEEVPGEGEAFDPRYHEAVGLLPGEPGKVAKVFQRGFRMGEALVRPARVAVGEEKREEADLE
Turning to B5, where the note is “Thermus thermophilus (strain ATCC 27634 / DSM 579 / HB8), pH 7.5, 25 °C, GdnHCl, CD, Tris-HCl 20 mM, KCl 100 mM, reversible: yes”, the unfolding free energy is 4.13 kcal/mol. The Tm (Thermus thermophilus (strain ATCC 27634 / DSM 579 / HB8), pH 7.5, DSC, Hepes-NaOH 20 mM, KCl 100 mM, reversible: yes) came out at 106 °C.
